Consider 13 molecules from US20110179505A1, “RODENT CANCER MODEL FOR HUMAN FGFR4 ARG388 POLYMORPHISM” (priority 2008, published 2011).

“Also recorded” adds a separate entry of the source.

Test [1] addresses T1, mouse wild-type FGFR4 (FGFR4 Gly385) (mouse, UniProt Q03142 17-799).
T1 construct: Endogenous hepatic FGFR4, immunoprecipitated from mouse liver lysates; also called hepatic FGFR4
Kind of test: in vivo SILAC LC-MS/MS of FGFR4 immunoprecipitates from liver, labelled SILAC mouse against FGFR4 KO mouse. The method, then:
The hepatic FGFR4 of the unlabelled mouse was immunoprecipitated in the presence of the blocking peptides to detect unspecific binding partners. […] Unspecific interaction partners should display a 1:1 ratio compared to the unlabelled fraction incubated with the blocking peptides. […] For that reason, the investigation of hepatic FGFR4 interaction partners was done with the liver of FGFR4 KO mice (Yu et al., 2000).
Here, significance (PEP<0.03), amount of razor peptides (RPs, >1) and an upregulation of at least 3 fold in FGFR4 KO experiments identified potential FGFR4 interaction partner.

The target of test [2] is T2, mouse FGFR4 Arg385 (knock-in allele) (mouse, UniProt Q03142 17-799).
T2 construct: Endogenous FGFR4 of FGFR4 Arg385 KI mice (liver lysates) and of MEFs derived from them
T2 sequence (Q03142 17-799 G385R/E673G limits assumed): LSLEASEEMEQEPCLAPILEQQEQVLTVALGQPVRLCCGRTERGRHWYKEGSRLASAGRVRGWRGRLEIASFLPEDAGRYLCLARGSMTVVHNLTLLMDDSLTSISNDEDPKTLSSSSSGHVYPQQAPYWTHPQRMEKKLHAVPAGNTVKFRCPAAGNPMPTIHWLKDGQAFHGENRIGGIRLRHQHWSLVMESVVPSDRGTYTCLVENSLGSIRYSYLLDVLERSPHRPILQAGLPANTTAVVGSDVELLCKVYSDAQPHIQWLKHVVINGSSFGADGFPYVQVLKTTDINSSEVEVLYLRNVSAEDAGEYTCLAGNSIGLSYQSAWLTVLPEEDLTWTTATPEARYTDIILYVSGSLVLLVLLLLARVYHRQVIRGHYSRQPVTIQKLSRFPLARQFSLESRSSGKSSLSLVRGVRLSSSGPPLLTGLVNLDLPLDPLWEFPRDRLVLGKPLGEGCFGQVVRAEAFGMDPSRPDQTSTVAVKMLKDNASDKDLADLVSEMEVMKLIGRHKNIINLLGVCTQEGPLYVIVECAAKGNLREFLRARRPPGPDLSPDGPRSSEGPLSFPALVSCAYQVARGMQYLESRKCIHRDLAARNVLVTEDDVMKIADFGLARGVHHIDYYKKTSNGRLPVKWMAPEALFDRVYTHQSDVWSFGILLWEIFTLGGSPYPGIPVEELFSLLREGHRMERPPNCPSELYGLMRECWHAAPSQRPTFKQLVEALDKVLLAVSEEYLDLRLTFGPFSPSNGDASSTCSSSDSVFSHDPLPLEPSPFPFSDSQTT
Put plainly: in vivo SILAC LC-MS/MS of FGFR4 immunoprecipitates from liver; FGFR4 Arg385 against the reference FGFR4 Gly385.

For test [3], the target named is T2, mouse FGFR4 Arg385 (knock-in allele). Put plainly: in vivo SILAC LC-MS/MS of FGFR4 immunoprecipitates from liver, FGFR4 Arg385 mouse with the labelled SILAC mouse as internal standard.
Test [4] deals with T1, mouse wild-type FGFR4 (FGFR4 Gly385). Kind of test: in vivo SILAC LC-MS/MS of FGFR4 immunoprecipitates from liver, FGFR4 Gly385 mouse with the labelled SILAC mouse as internal standard.
For test [5], the target named is Epidermal Growth Factor Receptor (EGFR, SEQ ID NO: 77) (Homo sapiens (Human)) (UniProt P00533). Put plainly: cell-based or functional assay.
A further test relates to FGFR4 Arg/Arg385 MEFs. Kind of test: Apoptosis assay in MEFs (propidium-iodide, FACS) after chemotherapeutic drugs. The class given is cell-based, mouse. The method, then: Transmigration of MEFs were analysed in Boyden Chambers (Schubert & Weiss, Germany). 1.5×10^4 cells were seeded in starving medium containing 0% FCS. Migration was performed to DMEM containing 4% FCS for 16 h. Afterwards cells were stained with crystal violet and migrated cells were analysed macroscopically. To perform an apoptosis assay 1.5×10^4cells in DMEM containing 10% FCS were seeded in 12-well plates. After 24 h cells were treated with 0.5 μM doxorubicin for 48 h. Afterwards cells were stained with propidium-iodide and apoptotic cells were determined in a FACS (FACScalibus, BD) analysis as previously described (27).
To support these observations by molecular analytical methods we determined whether the FGFR4 Arg385 allele is hyperactivated in MEFs and thereby enhances cell transformation. The expression of the different FGFR4 isoforms is equal in MEFs as well as its basic state of phosphorylation (FIG. 9A). Next, we wanted to check if FGFR4 Arg385 facilitates cell survival or influences physiological processes of MEFs. Therefore we analysed the number of population doublings until the cells enter senescence in vitro and additionally stained MEFs, subcultured for 30 days, for […] to visualize senescent cells. However, we found no obvious differences between the different FGFR4 alleles (FIG. 9B). […] Further we wanted to investigate the influence of the FGFR4 Arg385 allele on physiological processes. As a motility enhancing effect of is the FGFR4 Arg388 allele had already been shown by Bange and colleagues with a human mammary carcinoma cell line, we wanted to confirm this observation in MEFs, but as shown in FIG. 9C no difference observed when Gly/Gly—were compared to Arg/Arg-MEFs. Contrarily, Arg-carrying MEFs seemed to strongly support cell survival in response to DNA-damaging agents. […] Additionally, we investigated the anti-apoptotic impact of the FGFR4 Arg385 after treatment with other chemotherapeutic drugs.

In test [6] the target is human FGFR4 Arg388 (pLXSN-FGFR4 Arg388, overexpressed in MDA-MB-231 cells) (human) (UniProt P22455). Kind of test: SILAC LC-MS/MS of FGFR4 immunoprecipitates, MDA-MB-231 cells; FGFR4 Arg388 against the reference FGFR4 Gly388.
human FGFR4 Arg388 (pLXSN-FGFR4 Arg388, overexpressed in MDA-MB-231 cells) (human), sequence (P22455 22-802 G388R): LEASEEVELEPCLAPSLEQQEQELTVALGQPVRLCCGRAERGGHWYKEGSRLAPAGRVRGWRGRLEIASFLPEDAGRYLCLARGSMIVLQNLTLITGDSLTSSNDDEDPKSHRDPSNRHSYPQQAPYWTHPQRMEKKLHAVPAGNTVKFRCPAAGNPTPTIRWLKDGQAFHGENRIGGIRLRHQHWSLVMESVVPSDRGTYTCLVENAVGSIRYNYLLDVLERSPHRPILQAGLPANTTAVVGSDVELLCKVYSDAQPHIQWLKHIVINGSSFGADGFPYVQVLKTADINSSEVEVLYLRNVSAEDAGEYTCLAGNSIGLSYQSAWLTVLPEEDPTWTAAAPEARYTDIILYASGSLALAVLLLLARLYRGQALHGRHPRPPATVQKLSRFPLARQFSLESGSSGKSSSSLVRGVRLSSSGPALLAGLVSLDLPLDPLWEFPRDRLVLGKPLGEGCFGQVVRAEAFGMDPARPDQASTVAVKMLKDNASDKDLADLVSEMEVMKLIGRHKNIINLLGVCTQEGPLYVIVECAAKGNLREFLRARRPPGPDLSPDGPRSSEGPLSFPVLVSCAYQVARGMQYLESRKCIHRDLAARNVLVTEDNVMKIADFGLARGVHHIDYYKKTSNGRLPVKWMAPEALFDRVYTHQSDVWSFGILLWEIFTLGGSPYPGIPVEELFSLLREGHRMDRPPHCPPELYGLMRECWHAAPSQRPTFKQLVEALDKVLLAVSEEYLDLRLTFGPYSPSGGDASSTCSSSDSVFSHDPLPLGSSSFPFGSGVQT
For test [7] the target is unchanged. Kind of test: SILAC LC-MS/MS of FGFR4 immunoprecipitates, MDA-MB-231 cells overexpressing FGFR4 Arg388, normalized to empty pLXSN control cells.
Test [8] deals with human FGFR4 Gly388 (pLXSN-FGFR4 Gly388, overexpressed in MDA-MB-231 cells) (human) (UniProt P22455). Put plainly: SILAC LC-MS/MS of FGFR4 immunoprecipitates, MDA-MB-231 cells overexpressing FGFR4 Gly388, normalized to empty pLXSN control cells.

T1 sequence (Q03142 17-799 E673G limits assumed): as the sequence (Q03142 17-799 G385R/E673G limits assumed) above, with R369G counted along it

On to “Hydroxymethylglutaryl-CoA synthase (from UniProt P54869 38-508) (enzyme)”, for which the ratio FGFR4 KO (n = 2) in test [1] came to 3.3 fold. In addition, the ratio FGFR4 Arg385/Gly385 in test [2] was found to be 1. Besides, the ratio FGFR4 Arg385 (n = 2) in test [3] amounted to 1.8. Also, the ratio FGFR4 Gly385 (n = 1) in test [4] is 1.8.

In [5], “human FGFR4 Arg388 (pLXSN-FGFR4 Arg388, overexpressed in MDA-MB-231 cells) (from UniProt P22455 22-802) (receptor)” yielded an IC50 of Gefitinib, MTT-proliferation assay of MDA-MB-231 cells overexpressing the FGFR4 Arg388 allele of 9.53 µM and an inhibition of migration by Gefitinib (2.5 µM), Boyden Chamber Assay, 15 hours, against DMSO treated control cells of 22.3%.

Turning to `COc1cccc2c1C(=O)c1c(O)c3c(c(O)c1C2=O)C[C@@](O)(C(=O)CO)C[C@@H]3O[C@H]1C[C@H](N)[C@H](O)[C@H](C)O1` [doxorubicin], the “apoptotic cells in Arg/Arg385 MEFs compared to Gly/Gly385 MEFs” value with FGFR4 Arg/Arg385 MEFs (0.5 μM doxorubicin, 48 h, p=0.03) is listed as “decreased percentage of apoptotic cells; also recorded: reduced number of apoptotic cells”.

As for “Hydroxyacid oxidase 1 (from UniProt Q9WU19 1-370) (enzyme)”, the ratio FGFR4 KO (n = 2) in [1] turned out to be 19.7 fold. Besides, the ratio FGFR4 Arg385/Gly385 in [2] is 27.8. The ratio FGFR4 Arg385 (n = 2) in test [3] came to 1.6. For the same molecule, the ratio FGFR4 Gly385 (n = 1) in test [4] is 0.1.

In test [5], “human FGFR4 Gly388 (pLXSN-FGFR4 Gly388, overexpressed in MDA-MB-231 cells) (from UniProt P22455 22-802) (receptor)” displayed an IC50 of Gefitinib, MTT-proliferation assay of MDA-MB-231 cells expressing FGFR4 Gly388 (same value for empty pLXSN) of 18.7 µM and an inhibition of migration by Gefitinib (2.5 µM), Boyden Chamber Assay, 15 hours, against DMSO treated control cells of 6.28%.

As to `CC(=O)O[C@H]1C(=O)[C@@]2(C)[C@H]([C@H](OC(=O)c3ccccc3)[C@]3(O)C[C@H](OC(=O)[C@H](O)[C@@H](NC(=O)c4ccccc4)c4ccccc4)C(C)=C1C3(C)C)[C@]1(OC(C)=O)CO[C@@H]1C[C@@H]2O` [taxol], the “apoptotic response in Gly/Gly385 MEFs compared to Arg/Arg385 MEFs” value in the test with FGFR4 Arg/Arg385 MEFs (taxol, 48 hrs) was “no differences in apoptotic response”.

With “Epidermal growth factor receptor (mouse liver, Egfr) (from UniProt Q01279 25-1210)”, the ratio FGFR4 KO (n = 2) in [1] was 5.8 fold. Also, in test [2], the ratio FGFR4 Arg385/Gly385 was 3.8. Also, in test [3], the ratio FGFR4 Arg385 (n = 2) was 1.3. Besides, in [4], the ratio FGFR4 Gly385 (n = 1) was found to be 0.3.

On to “Formimidoyltransferase-cyclodeaminase (from UniProt Q91XD4 1-541) (enzyme)”, for which the ratio FGFR4 KO (n = 2) in [1] amounted to 3.5 fold. The ratio FGFR4 Arg385/Gly385 in test [2] amounted to 2.7. In addition, in test [3], the ratio FGFR4 Arg385 (n = 2) stood at 1. Further, the ratio FGFR4 Gly385 (n = 1) in [4] is 0.4.

Regarding “Propanoyl-CoA C-acyltransferase (from UniProt P32020 1-547) (enzyme)”, the ratio FGFR4 KO (n = 2) in test [1] came to 7.8 fold. In test [2], the ratio FGFR4 Arg385/Gly385 turned out to be 18.6. Moreover, the ratio FGFR4 Arg385 (n = 2) in test [3] stood at 3.6. For the same molecule, the ratio FGFR4 Gly385 (n = 1) in test [4] was 0.2.

For the molecule “Ephrin type-A receptor 2 (from UniProt P29317 24-976)”, in test [6], the ratio FGFR4Arg388/Gly388 (n = 2) amounted to 1.05 fold. Besides, in test [7], the ratio FGFR4Arg388 (n = 2) stood at 8.74 fold. In [8], the ratio FGFR4Gly388 (n = 2) was 7.97 fold.

As for “Protein tyrosine phosphatase, receptor type, F (from UniProt P10586 30-1907)”, the ratio FGFR4Arg388/Gly388 (n = 2) in test [6] is 1.06 fold. The ratio FGFR4Arg388 (n = 2) in test [7] was 14.3 fold. Further, the ratio FGFR4Gly388 (n = 2) in test [8] was 16.6 fold.

`N.N.[Cl][Pt][Cl]` [cisplatin]: the “apoptotic cells in Arg385 carrying MEFs compared to Gly/Gly385 MEFs” value in the test on FGFR4 Arg/Arg385 MEFs (3 μM cisplatin, 48 hrs, p=0.03) was “decreased apoptosis; also recorded: reduced number of apoptotic cells”.

B1: Beta-klotho (receptor, mouse, UniProt Q99N32 1-1043, looked up)
chain: MKTGCAAGSPGNEWIFFSSDERNTRSRKTMSNRALQRSAVLSAFVLLRAVTGFSGDGKAIWDKKQYVSPVNPSQLFLYDTFPKNFSWGVGTGAFQVEGSWKTDGRGPSIWDRYVYSHLRGVNGTDRSTDSYIFLEKDLLALDFLGVSFYQFSISWPRLFPNGTVAAVNAQGLRYYRALLDSLVLRNIEPIVTLYHWDLPLTLQEEYGGWKNATMIDLFNDYATYCFQTFGDRVKYWITIHNPYLVAWHGFGTGMHAPGEKGNLTAVYTVGHNLIKAHSKVWHNYDKNFRPHQKGWLSITLGSHWIEPNRTDNMEDVINCQHSMSSVLGWFANPIHGDGDYPEFMKTGAMIPEFSEAEKEEVRGTADFFAFSFGPNNFRPSNTVVKMGQNVSLNLRQVLNWIKLEYDDPQILISENGWFTDSYIKTEDTTAIYMMKNFLNQVLQAIKFDEIRVFGYTAWTLLDGFEWQDAYTTRRGLFYVDFNSEQKERKPKSSAHYYKQIIQDNGFPLKESTPDMKGRFPCDFSWGVTESVLKPEFTVSSPQFTDPHLYVWNVTGNRLLYRVEGVRLKTRPSQCTDYVSIKKRVEMLAKMKVTHYQFALDWTSILPTGNLSKVNRQVLRYYRCVVSEGLKLGVFPMVTLYHPTHSHLGLPLPLLSSGGWLNMNTAKAFQDYAELCFRELGDLVKLWITINEPNRLSDMYNRTSNDTYRAAHNLMIAHAQVWHLYDRQYRPVQHGAVSLSLHCDWAEPANPFVDSHWKAAERFLQFEIAWFADPLFKTGDYPSVMKEYIASKNQRGLSSSVLPRFTAKESRLVKGTVDFYALNHFTTRFVIHKQLNTNRSVADRDVQFLQDITRLSSPSRLAVTPWGVRKLLAWIRRNYRDRDIYITANGIDDLALEDDQIRKYYLEKYVQEALKAYLIDKVKIKGYYAFKLTEEKSKPRFGFFTSDFRAKSSVQFYSKLISSSGLPAENRSPACGQPAEDTDCTICSFLVEKKPLIFFGCCFISTLAVLLSITVFHHQKRRKFQKARNLQNIPLKKGHSRVFS
notes: Endogenous protein co-immunoprecipitated with hepatic FGFR4; also called βKlotho
As for B1, the “ratio FGFR4 KO (n = 2)” value in [1] is 28.2 fold. In test [2], the “ratio FGFR4 Arg385/Gly385” value was 0.7 ratio. For the same molecule, the “ratio FGFR4 Arg385 (n = 2)” value in test [3] is 2.4 ratio. For the same molecule, in [4], the “ratio FGFR4 Gly385 (n = 1)” value was determined as 3.2 ratio.
